From US20050084491A1 (Janssen / Centocor, published 2005) come the findings set out here.

Assay [1] concerns the target CNTO95. As to the kind of experiment: flow cytometry: CNTO95 (10 ug/ml) staining of A375.S2 cells after preincubation with peptide at 100 ug/ml. Background: In flow cytometry, cells or beads pass a laser one at a time.
Assay [2] concerns the target CNTO95. The assay can be described thus: isothermal titration calorimetry, peptide titrated into 3 µM CNTO95, 25° C. (commented: No binding). A general note: ITC needs no label: the signal is the heat of the interaction.
Assay [3] addresses CNTO95. The assay can be described thus: flow cytometry: CNTO95 (10 ug/ml) staining of A375.S2 cells after preincubation with peptide at 200 ug/ml.
Assay [4] concerns the target CNTO95. As to the kind of experiment: competitive ELISA: peptide preincubated with CNTO95, CNTO95 binding to αVβ3-coated plate detected. A general note: In an ELISA, binding on a coated surface is turned into a signal by an enzyme label.
Assay [5] has as its target CNTO95. As to the kind of experiment: isothermal titration calorimetry, peptide titrated into 3 µM CNTO95, 25° C.

B1: CEN2322 (peptide)
peptide: DYRTAADTTGLQ
notes: synthetic peptide with the D564-Q575 segment of the mature alphaV chain; also called alphaV segment; native peptide
Turning to B1, the “Mean Channel Fluorescence” value in the assay with CNTO95 [1] came to 90.5; with CNTO95 [3], 92.4. Moreover, the ΔH in the assay with CNTO95 [2] was -0.325 kcal/mol.

B2: CEN2319 (peptide)
peptide: DFRSWWDLSGYR
notes: synthetic linear peptide, phage-display consensus (mimotope); also called 12p1; 12pG1
Take B2: the EC50 (in general, the midpoint of the concentration-response curve) with CNTO95 [4] turned out to be 5.8 µM. In addition, in the assay with CNTO95 [5], the Kd (usually the concentration at which binding is half-saturated) is 4.2 µM, the “Molar ratio (Peptide/CNTO95)” value is 2.2 and the ΔH was -12 kcal/mol. The “Mean Channel Fluorescence” value in the assay with CNTO95 [1] stood at 12.3. Further, in the assay with CNTO95 [3], the “Mean Channel Fluorescence” value was found to be 11.6.

B3: CEN2553 (peptide)
peptide: DFRSWWDLEE
notes: synthetic peptide made from the consensus formula; C-terminal glutamates added for solubility
Take B3: the “Mean Channel Fluorescence” value in the assay with CNTO95 [1] amounted to 12.9; in the assay with CNTO95 [3] it was 9.41.
